Blank lines part the entries; values can stand above or below the molecule they belong to.
Assays:
Experiment in all cases: native gel or EMSA; single recombinant Kai proteins or two of them together, 16 h at 30 °C in phosphorylation assay buffer (0.2 µg/µl dephosphorylated Strep-KaiC3, 0.1 µg/µl of the others); 4-16% clear native PAGE at 4 °C; Coomassie or anti-His blot
[1] = biological target: KaiA3-His6 (Synechocystis sp. PCC 6803)
[2] = biological target: KaiB3 (recombinant, GST-tag removed) (Synechocystis sp. PCC 6803)
[3] = biological target: Strep-KaiC3 (Synechocystis sp. PCC 6803)
[4] = biological target: the molecule itself

stoichiometry N [1]: > 2
Molecule: KaiA3-His6 (natural protein)

stoichiometry N [2]: 4
Molecule: KaiB3 (recombinant, GST-tag removed) (natural protein)

stoichiometry N [3]: 6
Molecule: Strep-KaiC3 (natural protein)

B1: Synechococcus KaiA (recombinant, GST-tag removed) (natural protein, Synechococcus elongatus PCC 7942, UniProt Q79PF6 1-284, looked up)
chain: MLSQIAICIWVESTAILQDCQRALSADRYQLQVCESGEMLLEYAQTHRDQIDCLILVAANPSFRAVVQQLCFEGVVVPAIVVGDRDSEDPDEPAKEQLYHSAELHLGIHQLEQLPYQVDAALAEFLRLAPVETMADHIMLMGANHDPELSSQQRDLAQRLQERLGYLGVYYKRDPDRFLRNLPAYESQKLHQAMQTSYREIVLSYFSPNSNLNQSIDNFVNMAFFADVPVTKVVEIHMELMDEFAKKLRVEGRSEDILLDYRLTLIDVIAHLCEMYRRSIPRET
notes: KaiA of Synechococcus elongatus PCC 7942; plasmid provided by T. Kondo; Migrates at about 60 kDa on clear native PAGE (dimer); source: E. coli BL21(DE3), purified (glutathione-agarose 4B, PreScission cleavage); not shown: GST, N-terminal, cleaved
stoichiometry N [4]: 2
